# Source: IntAct's records for PubMed 11356188
# B1: Circadian clock oscillator protein KaiA (Synechococcus elongatus (strain PCC 7942)), Q79PF6 (parent)
# chain: MLSQIAICIWVESTAILQDCQRALSADRYQLQVCESGEMLLEYAQTHRDQIDCLILVAANPSFRAVVQQLCFEGVVVPAIVVGDRDSEDPDEPAKEQLYHSAELHLGIHQLEQLPYQVDAALAEFLRLAPVETMADHIMLMGANHDPELSSQQRDLAQRLQERLGYLGVYYKRDPDRFLRNLPAYESQKLHQAMQTSYREIVLSYFSPNSNLNQSIDNFVNMAFFADVPVTKVVEIHMELMDEFAKKLRVEGRSEDILLDYRLTLIDVIAHLCEMYRRSIPRET
# partner: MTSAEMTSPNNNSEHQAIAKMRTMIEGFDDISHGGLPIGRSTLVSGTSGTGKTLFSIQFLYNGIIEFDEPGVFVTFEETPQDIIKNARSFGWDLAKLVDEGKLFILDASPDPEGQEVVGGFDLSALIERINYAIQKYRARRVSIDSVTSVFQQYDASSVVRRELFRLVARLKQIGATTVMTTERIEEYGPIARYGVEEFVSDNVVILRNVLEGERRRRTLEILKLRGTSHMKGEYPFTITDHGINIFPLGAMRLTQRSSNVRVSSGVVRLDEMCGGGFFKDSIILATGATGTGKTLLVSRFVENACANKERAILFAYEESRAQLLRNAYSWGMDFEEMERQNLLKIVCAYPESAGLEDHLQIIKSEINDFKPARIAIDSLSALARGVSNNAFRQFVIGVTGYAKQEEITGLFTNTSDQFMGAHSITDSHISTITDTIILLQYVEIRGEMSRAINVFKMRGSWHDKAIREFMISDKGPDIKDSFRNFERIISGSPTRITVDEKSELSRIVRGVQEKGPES
# B2: Circadian clock oscillator protein KaiC (Synechococcus elongatus (strain PCC 7942)), Q79PF4 (parent)
# chain: B1 partner
# partner: B1 chain
# Variants of: B1
# Conditions: with kaic_syne7 kaiC, Q79PF4
row,Variant,effect of a mutation on the interaction
1,R249H,decreasing interaction

# Variants of: B1
# Conditions: with kaic_syne7 kaiC, Q79PF4
# Remark: another data set of the same source
row,Variant,effect of a mutation on the interaction
1,Y166C,decreasing interaction

# Variants of: B2
# Conditions: with kaia_syne7 kaiA, Q79PF6
row,Variant,effect of a mutation on the interaction
1,R215C,decreasing interaction
2,P248K,decreasing interaction

# Variants of: B2
# Conditions: with kaia_syne7 kaiA, Q79PF6
# Remark: another data set of the same source
row,Variant,effect of a mutation on the interaction
1,T495A,decreasing interaction
